Measured values as given in paper PMC5772613, “Phosphorylation induced cochaperone unfolding promotes kinase recruitment and client class-specific Hsp90 phosphorylation” (Nature Communications, 2018).

B1: Full-length human Cdc37 [human] / Catalytic domain of bRaf [not stated] (parent complex)
chain 1: MVDYSVWDHIEVSDDEDETHPNIDTASLFRWRHQARVERMEQFQKEKEELDRGCRECKRKVAECQRKLKELEVAEGGKAELERLQAEAQQLRKEERSWEQKLEEMRKKEKSMPWNVDTLSKDGFSKSMVNTKPEKTEEDSEEVREQKHKTFVEKYEKQIKHFGMLRRWDDSQKYLSDNVHLVCEETANYLVIWCIDLEVEEKCALMEQVAHQTIVMQFILELAKSLKVDPRACFRQFFTKIKTADRQYMEGFNDELEAFKERVRGRAKLRIEKAMKEYEEEERKKRLGPGGLDPVEVYESLPEELQKCFDVKDVQMLQDAISKMDPTDAKYHMQRCIDSGLWVPNSKASEAKEGEEAGPGDPLLEAVPKTGDEKDVSV
chain 2: ITVGQRIGSGSFGTVYKGKWHGDVAVKMLNVTAPTPQQLQAFKNEVGVLRKTRHVNILLFMGYSTKPQLAIVTQWCEGSSLYHHLHIIETKFEMIKLIDIARQTAQGMDYLHAKSIIHRDLKSNNIFLHEDLTVKIGDFGLATVKSRWSGSHQFEQLSGSILWMAPEVIRMQDKNPYSFQSDVYAFGIVLYELMTGQLPYSNINNRDQIIFMVGRGYLSPDLSKVRSNCPKAMKRLMAECLKKKRDERPLFPQILASIELL

Variants of: B1
Test: ITC; read off a plot

| Variant | Kd |
| --- | --- |
| chain 1 Y4E | ~1 µM |
| chain 1 Y298E | ~1.9 µM |
| chain 1 Y4E, chain 1 Y298E | ~2.1 µM |
